From patent US20250313635A1, “ANTI-INTEGRIN ANTIBODIES AND USES THEREOF” (Merck Sharp & Dohme LLC, priority 2022, published 2025)

B1: Ab-30 (antibody, V domains shown)
VH: EVQLQESGPGLVKPSETLSLTCAVSGYSISSGYYWGWIRQPPGKGLEWIGSIYHSGNTYYNPSLKSRVTISVDTSKNQFSLKLSSVTAADTAVYYCARVPRYSRGDAYYYYGMDVWGQGTTVTVSS
VL: DIQMTQSPSTLSASVGDRVTITCRASQSISSWLAWYQQKPGKAPKLLIYKASSLESGVPSRFSGSGSGTEFTLTISSLQPDDFATYYCQQVKIYPPYTFGGGTKVEIK
B2: Ab-31 (antibody, V domains shown)
VH: B1 VH
VL: DIQMTQSPSTLSASVGDRVTITCRASQSIGSWLAWYQQKPGKAPKLLIYKASSLESGVPSRFSGSGSGTEFTLTISSLQPDDFATYYCQQSGPYPWTFGGGTKVEIK
B3: Ab-29 (antibody, V domains shown)
VH: ELQLQESGPGLVKPSETLSLTCTVSGGSISSNSYYWGWIRQPPGKGLEWIGSIYYSGSTYYNPSLKSRVTISVDTSKNQFSLKLSSVTAADTAVYYCARVRRVAGRGDSYYYYYGMDVWGQGTTVTVSS
VL: DIQMTQSPSSVSASVGDRVTITCRASQGISRWLAWYQQKPGKAPKLLIYAASSLQSGVPSRFSGSGSGTDFTLTISSLQPEDFATYYCQQAISHPWTFGGGTKVEIK

Target: recombinant mouse αvβ8 integrin extracellular domains (mouse) (UniProt P43406)
Sequence (P43406 other isoform, or with tags, fused parts or gaps, form in doubt, chain 1 of 2): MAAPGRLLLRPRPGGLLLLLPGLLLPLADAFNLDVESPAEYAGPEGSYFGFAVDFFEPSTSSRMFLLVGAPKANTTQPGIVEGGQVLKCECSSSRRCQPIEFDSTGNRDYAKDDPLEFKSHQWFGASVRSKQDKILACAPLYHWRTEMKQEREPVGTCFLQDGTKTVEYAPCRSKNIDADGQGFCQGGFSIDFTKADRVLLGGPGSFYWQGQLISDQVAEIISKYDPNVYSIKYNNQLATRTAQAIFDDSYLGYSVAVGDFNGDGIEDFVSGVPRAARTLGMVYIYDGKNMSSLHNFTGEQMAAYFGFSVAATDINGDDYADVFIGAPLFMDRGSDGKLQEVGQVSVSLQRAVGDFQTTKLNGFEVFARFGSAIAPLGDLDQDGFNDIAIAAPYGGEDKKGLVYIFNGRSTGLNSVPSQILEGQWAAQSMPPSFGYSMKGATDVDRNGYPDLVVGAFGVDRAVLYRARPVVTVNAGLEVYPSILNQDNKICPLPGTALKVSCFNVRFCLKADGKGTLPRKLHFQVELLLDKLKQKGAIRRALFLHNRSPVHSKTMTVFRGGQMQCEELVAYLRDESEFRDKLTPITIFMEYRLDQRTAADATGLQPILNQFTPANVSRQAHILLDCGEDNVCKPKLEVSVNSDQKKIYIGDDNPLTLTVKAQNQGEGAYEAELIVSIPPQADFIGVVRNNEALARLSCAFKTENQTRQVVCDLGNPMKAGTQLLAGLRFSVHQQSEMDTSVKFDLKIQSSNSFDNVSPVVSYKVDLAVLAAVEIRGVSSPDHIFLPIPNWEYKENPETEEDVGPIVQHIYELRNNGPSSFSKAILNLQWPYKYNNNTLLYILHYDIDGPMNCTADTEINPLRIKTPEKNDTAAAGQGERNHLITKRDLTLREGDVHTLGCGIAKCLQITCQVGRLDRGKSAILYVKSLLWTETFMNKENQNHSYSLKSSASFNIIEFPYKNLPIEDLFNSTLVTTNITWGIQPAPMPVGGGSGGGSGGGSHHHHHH
Sequence (Q0VBD0 other isoform, or with tags, fused parts or gaps, form in doubt, chain 2 of 2, further chain): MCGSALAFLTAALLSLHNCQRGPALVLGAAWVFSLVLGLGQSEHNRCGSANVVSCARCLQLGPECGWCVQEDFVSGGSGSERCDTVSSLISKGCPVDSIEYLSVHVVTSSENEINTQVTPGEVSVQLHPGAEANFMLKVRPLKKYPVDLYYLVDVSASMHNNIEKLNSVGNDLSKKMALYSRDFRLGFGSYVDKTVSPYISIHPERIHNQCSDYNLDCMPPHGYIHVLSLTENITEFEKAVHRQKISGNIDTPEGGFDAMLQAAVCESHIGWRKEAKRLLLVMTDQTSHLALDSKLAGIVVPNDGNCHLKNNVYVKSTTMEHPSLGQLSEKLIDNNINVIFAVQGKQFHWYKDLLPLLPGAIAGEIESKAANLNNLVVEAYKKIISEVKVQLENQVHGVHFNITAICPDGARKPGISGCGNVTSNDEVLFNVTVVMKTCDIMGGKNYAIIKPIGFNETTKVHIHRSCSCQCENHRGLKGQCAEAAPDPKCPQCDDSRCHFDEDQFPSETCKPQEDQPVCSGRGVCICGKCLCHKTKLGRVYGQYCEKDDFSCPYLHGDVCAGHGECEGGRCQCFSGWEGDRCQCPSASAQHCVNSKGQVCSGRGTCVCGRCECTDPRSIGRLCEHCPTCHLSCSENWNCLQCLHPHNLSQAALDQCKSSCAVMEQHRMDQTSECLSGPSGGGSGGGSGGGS
Experiment: AlphaLISA blocking of mouse LAP-6His binding

Binder	IC50
B1	25.1 nM
B2	66.3 nM
B3	102 nM
